Experimental data as given in paper PMC314469, “Protein Interaction Networks by Proteome Peptide Scanning” (PLoS Biology, 2004).

T1: Yhr016c SH3 (YSC84_YEAST), P32793
T1 chain: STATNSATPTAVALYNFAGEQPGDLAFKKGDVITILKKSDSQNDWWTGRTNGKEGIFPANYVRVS

T2: Rvs167 SH3 (RV167_YEAST), P39743
T2 chain: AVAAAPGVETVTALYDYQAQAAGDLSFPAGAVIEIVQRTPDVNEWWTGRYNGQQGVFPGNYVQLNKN

T3: Boi2 SH3 (BOI2_YEAST), P39969
T3 chain: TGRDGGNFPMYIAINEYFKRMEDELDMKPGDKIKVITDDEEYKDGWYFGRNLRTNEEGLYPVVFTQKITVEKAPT

T4: Yfr024 SH3 (LSB3_YEAST), P43603
T4 chain: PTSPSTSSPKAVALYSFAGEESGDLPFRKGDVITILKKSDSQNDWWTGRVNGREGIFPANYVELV

T5: Boi1 SH3 (BOI1_YEAST), P38041
T5 chain: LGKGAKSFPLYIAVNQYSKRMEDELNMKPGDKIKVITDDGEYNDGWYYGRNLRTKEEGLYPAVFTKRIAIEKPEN


Target: T1, Yhr016c SH3 (YSC84_YEAST), P32793
Assay: SPOT array

Binder	normalised SPOT signal, Boehringer light units (BLU); mean over the file's lines of this peptide
KRTPKIPEKDVKSD [YDR026C 223-236]	187
KPKPPKPIKYHFED [YMR044W 286-299]	124
LSIPDLPLRIHNQT [YCR087W 13-26]	31200
KSKPKVPAKNPELE [YNL106C 1157-1170]	210
KSFPPPPLKPGQKT [YBR108W 84-97]	229
KTVPQSPKKPLSLL [YOR058C 193-206]	192
KSVPIPPRKNATLD [YJR113C 102-115]	992
KWEPSTPQRKGPIL [YLR460C 166-179]	603
KYDPEDPNRRKLAR [YPL093W 387-400]	172
KYDPDNPNKDKLGT [YBR235W 52-65]	266
LDDPFTPPRWLHHI [YDR128W 52-65]	708
LAPPLSPTKPSPLH [YDR425W 253-266]	77.1
KWEPSTPQRNGPIL [YCR102C 158-171]	1620
LARPPPPKRIRTDS [YKL139W 32-45]	3210
KSSPWSPYKVEKVL [YBR156C 161-174]	320
KYGPLPPSRASVGS [YLR143W 388-401]	488
KRPPTAPQRKISLP [YPR171W 469-482]	1820
KTKPTPPPKPSHLK [YNL020C 606-619]	236
KTKPSIPPKKVELN [YPR171W 354-367]	133

Target: T2, Rvs167 SH3 (RV167_YEAST), P39743
Assay: SPOT array

Binder	normalised SPOT signal, Boehringer light units (BLU); mean over the file's lines of this peptide
KRTPKIPEKDVKSD [YDR026C 223-236]	242
KPKPPKPIKYHFED [YMR044W 286-299]	6.8
LSIPDLPLRIHNQT [YCR087W 13-26]	2710
KSKPKVPAKNPELE [YNL106C 1157-1170]	50.8
KSFPPPPLKPGQKT [YBR108W 84-97]	57.7
KTVPQSPKKPLSLL [YOR058C 193-206]	17.8
KSVPIPPRKNATLD [YJR113C 102-115]	12100
KWEPSTPQRKGPIL [YLR460C 166-179]	51.1
KYDPEDPNRRKLAR [YPL093W 387-400]	30.9
KYDPDNPNKDKLGT [YBR235W 52-65]	48.2
LDDPFTPPRWLHHI [YDR128W 52-65]	89
LAPPLSPTKPSPLH [YDR425W 253-266]	30.7
KWEPSTPQRNGPIL [YCR102C 158-171]	31.1
LARPPPPKRIRTDS [YKL139W 32-45]	1260
KSSPWSPYKVEKVL [YBR156C 161-174]	156
KYGPLPPSRASVGS [YLR143W 388-401]	65.7
KRPPTAPQRKISLP [YPR171W 469-482]	605
KTKPTPPPKPSHLK [YNL020C 606-619]	8.2
KTKPSIPPKKVELN [YPR171W 354-367]	27.4

Target: T3, Boi2 SH3 (BOI2_YEAST), P39969
Assay: SPOT array

Binder	normalised SPOT signal, Boehringer light units (BLU); mean over the file's lines of this peptide
KRTPKIPEKDVKSD [YDR026C 223-236]	47.6
KPKPPKPIKYHFED [YMR044W 286-299]	52.1
LSIPDLPLRIHNQT [YCR087W 13-26]	35.3
KSKPKVPAKNPELE [YNL106C 1157-1170]	46
KSFPPPPLKPGQKT [YBR108W 84-97]	183
KTVPQSPKKPLSLL [YOR058C 193-206]	53.9
KSVPIPPRKNATLD [YJR113C 102-115]	146
KWEPSTPQRKGPIL [YLR460C 166-179]	43
KYDPEDPNRRKLAR [YPL093W 387-400]	15.7
KYDPDNPNKDKLGT [YBR235W 52-65]	66.7
LDDPFTPPRWLHHI [YDR128W 52-65]	38.5
LAPPLSPTKPSPLH [YDR425W 253-266]	6.5
KWEPSTPQRNGPIL [YCR102C 158-171]	31.6
LARPPPPKRIRTDS [YKL139W 32-45]	70.2
KSSPWSPYKVEKVL [YBR156C 161-174]	122
KYGPLPPSRASVGS [YLR143W 388-401]	41.5
KRPPTAPQRKISLP [YPR171W 469-482]	51.3
KTKPTPPPKPSHLK [YNL020C 606-619]	71.3
KTKPSIPPKKVELN [YPR171W 354-367]	34.8

Target: T4, Yfr024 SH3 (LSB3_YEAST), P43603
Assay: SPOT array

Binder	normalised SPOT signal, Boehringer light units (BLU); mean over the file's lines of this peptide
KRTPKIPEKDVKSD [YDR026C 223-236]	342
KPKPPKPIKYHFED [YMR044W 286-299]	249
LSIPDLPLRIHNQT [YCR087W 13-26]	25400
KSKPKVPAKNPELE [YNL106C 1157-1170]	396
KSFPPPPLKPGQKT [YBR108W 84-97]	220
KTVPQSPKKPLSLL [YOR058C 193-206]	280
KSVPIPPRKNATLD [YJR113C 102-115]	25100
KWEPSTPQRKGPIL [YLR460C 166-179]	2430
KYDPEDPNRRKLAR [YPL093W 387-400]	222
KYDPDNPNKDKLGT [YBR235W 52-65]	20.9
LDDPFTPPRWLHHI [YDR128W 52-65]	3400
LAPPLSPTKPSPLH [YDR425W 253-266]	111
KWEPSTPQRNGPIL [YCR102C 158-171]	3400
LARPPPPKRIRTDS [YKL139W 32-45]	15700
KSSPWSPYKVEKVL [YBR156C 161-174]	253
KYGPLPPSRASVGS [YLR143W 388-401]	2010
KRPPTAPQRKISLP [YPR171W 469-482]	8630
KTKPTPPPKPSHLK [YNL020C 606-619]	16700
KTKPSIPPKKVELN [YPR171W 354-367]	1930

Target: T5, Boi1 SH3 (BOI1_YEAST), P38041
Assay: SPOT array

Binder	normalised SPOT signal, Boehringer light units (BLU); mean over the file's lines of this peptide
KRTPKIPEKDVKSD [YDR026C 223-236]	151
KPKPPKPIKYHFED [YMR044W 286-299]	154
LSIPDLPLRIHNQT [YCR087W 13-26]	69.2
KSKPKVPAKNPELE [YNL106C 1157-1170]	166
KSFPPPPLKPGQKT [YBR108W 84-97]	112
KTVPQSPKKPLSLL [YOR058C 193-206]	101
KSVPIPPRKNATLD [YJR113C 102-115]	1140
KWEPSTPQRKGPIL [YLR460C 166-179]	1870
KYDPEDPNRRKLAR [YPL093W 387-400]	310
KYDPDNPNKDKLGT [YBR235W 52-65]	146
LDDPFTPPRWLHHI [YDR128W 52-65]	423
LAPPLSPTKPSPLH [YDR425W 253-266]	81.4
KWEPSTPQRNGPIL [YCR102C 158-171]	143
LARPPPPKRIRTDS [YKL139W 32-45]	528
KSSPWSPYKVEKVL [YBR156C 161-174]	117
KYGPLPPSRASVGS [YLR143W 388-401]	551
KRPPTAPQRKISLP [YPR171W 469-482]	285
KTKPTPPPKPSHLK [YNL020C 606-619]	153
KTKPSIPPKKVELN [YPR171W 354-367]	46
